B1: NAP1-binding protein (Saccharomyces cerevisiae), P52919 (parent)
chain: MLKSVQGLWKDFFGIRDDGRKREYGSLDEVRKRSALRSRRKQMRPTGKSVLKRPRKVTDRKTEEKIRTNRRKTPKRRLTKIFQTIRDVFSNDNENMSKMQNVCGDMTRILKKRSQGRPSYMDTDTAKSRILRSDAFKRKISELKYNKQRISELRSGSSDGSSGKDRNQSLYLDREILLQRQIKKRDEKIKALESKLQSLQEALNYSNEKYRILEDLLDSSNIHPSYTKSRRTMSNLARENDEIKPLKIDLSPSPIRRTNSLFTSSPMKTYNRDGNIPEMQPLQENISPACPTPPYRSRETEKEDETLSPISVDFSSYLS

Variants of: B1
Details: with nic96_yeast NIC96, P34077
nic96_yeast NIC96, P34077, sequence (P34077 whole entry): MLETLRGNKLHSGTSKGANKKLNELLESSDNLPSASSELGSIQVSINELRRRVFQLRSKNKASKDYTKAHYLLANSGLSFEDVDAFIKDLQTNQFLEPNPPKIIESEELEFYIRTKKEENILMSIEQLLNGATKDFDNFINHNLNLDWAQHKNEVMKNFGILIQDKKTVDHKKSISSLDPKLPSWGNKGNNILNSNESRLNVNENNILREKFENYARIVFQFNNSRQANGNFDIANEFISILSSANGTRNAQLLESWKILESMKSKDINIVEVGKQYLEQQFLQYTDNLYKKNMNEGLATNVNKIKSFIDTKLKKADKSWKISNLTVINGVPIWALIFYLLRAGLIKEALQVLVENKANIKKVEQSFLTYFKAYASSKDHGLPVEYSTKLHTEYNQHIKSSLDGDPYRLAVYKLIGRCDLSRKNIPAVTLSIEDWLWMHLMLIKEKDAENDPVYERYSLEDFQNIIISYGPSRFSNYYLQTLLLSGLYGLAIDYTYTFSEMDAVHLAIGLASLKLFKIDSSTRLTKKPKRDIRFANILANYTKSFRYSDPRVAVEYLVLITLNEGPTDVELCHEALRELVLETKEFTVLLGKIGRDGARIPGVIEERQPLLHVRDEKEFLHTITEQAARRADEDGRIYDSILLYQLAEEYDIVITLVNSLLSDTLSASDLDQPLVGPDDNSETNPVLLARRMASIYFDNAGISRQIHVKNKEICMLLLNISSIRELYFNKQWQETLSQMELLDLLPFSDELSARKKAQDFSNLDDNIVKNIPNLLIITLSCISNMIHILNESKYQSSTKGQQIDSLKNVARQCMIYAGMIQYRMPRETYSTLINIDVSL

Row | Variant | effect of a mutation on the interaction
1 | MAKSVQGLWKDFFGIRDDGRKREYGSLDEVRKRSALRSRRKQMRPTGKSVLKRPRKVTDRKTEEKIRTNRRKTPKRRLTKIFQTIRDVFSNDNENMSKMQNVCGDMTRILKKRSQGRPSYMDTDTAKSRILRSDAFKRKISELKYNKQRISELRSGSSDGSSGKDRNQSLYLDREILLQRQIKKRDEKIKALESKLQSLQEALNYSNEKYRILEDLLDSSNIHPSYTKSRRTMSNLARENDEIKPLKIDLSPSPIRRTNSLFTSSPMKTYNRDGNIPEMQPLQENISPACPTPPYRSRETEKEDETLSPISVDFSSYLS [L2A] | disrupting interaction
2 | MLKSAQGLWKDFFGIRDDGRKREYGSLDEVRKRSALRSRRKQMRPTGKSVLKRPRKVTDRKTEEKIRTNRRKTPKRRLTKIFQTIRDVFSNDNENMSKMQNVCGDMTRILKKRSQGRPSYMDTDTAKSRILRSDAFKRKISELKYNKQRISELRSGSSDGSSGKDRNQSLYLDREILLQRQIKKRDEKIKALESKLQSLQEALNYSNEKYRILEDLLDSSNIHPSYTKSRRTMSNLARENDEIKPLKIDLSPSPIRRTNSLFTSSPMKTYNRDGNIPEMQPLQENISPACPTPPYRSRETEKEDETLSPISVDFSSYLS [V5A] | disrupting interaction
3 | MLKSVQGLWKDAFGIRDDGRKREYGSLDEVRKRSALRSRRKQMRPTGKSVLKRPRKVTDRKTEEKIRTNRRKTPKRRLTKIFQTIRDVFSNDNENMSKMQNVCGDMTRILKKRSQGRPSYMDTDTAKSRILRSDAFKRKISELKYNKQRISELRSGSSDGSSGKDRNQSLYLDREILLQRQIKKRDEKIKALESKLQSLQEALNYSNEKYRILEDLLDSSNIHPSYTKSRRTMSNLARENDEIKPLKIDLSPSPIRRTNSLFTSSPMKTYNRDGNIPEMQPLQENISPACPTPPYRSRETEKEDETLSPISVDFSSYLS [F12A] | disrupting interaction
4 | MLKSVQGLWKDFAGIRDDGRKREYGSLDEVRKRSALRSRRKQMRPTGKSVLKRPRKVTDRKTEEKIRTNRRKTPKRRLTKIFQTIRDVFSNDNENMSKMQNVCGDMTRILKKRSQGRPSYMDTDTAKSRILRSDAFKRKISELKYNKQRISELRSGSSDGSSGKDRNQSLYLDREILLQRQIKKRDEKIKALESKLQSLQEALNYSNEKYRILEDLLDSSNIHPSYTKSRRTMSNLARENDEIKPLKIDLSPSPIRRTNSLFTSSPMKTYNRDGNIPEMQPLQENISPACPTPPYRSRETEKEDETLSPISVDFSSYLS [F13A] | disrupting interaction
5 | MLKSVQGLAKDFFGIRDDGRKREYGSLDEVRKRSALRSRRKQMRPTGKSVLKRPRKVTDRKTEEKIRTNRRKTPKRRLTKIFQTIRDVFSNDNENMSKMQNVCGDMTRILKKRSQGRPSYMDTDTAKSRILRSDAFKRKISELKYNKQRISELRSGSSDGSSGKDRNQSLYLDREILLQRQIKKRDEKIKALESKLQSLQEALNYSNEKYRILEDLLDSSNIHPSYTKSRRTMSNLARENDEIKPLKIDLSPSPIRRTNSLFTSSPMKTYNRDGNIPEMQPLQENISPACPTPPYRSRETEKEDETLSPISVDFSSYLS [W9A] | disrupting interaction

From IntAct's records for PubMed 21785410
